Source: article PMC9600270, “Quantum Dot-Based Screening Identifies F3 Peptide and Reveals Cell Surface Nucleolin as a Therapeutic Target for Rhabdomyosarcoma” (Cancers, 2022)

Target: nucleolin (cell surface, on RD and Rh30 rhabdomyosarcoma cells) (UniProt P19338)
Assay: FACS cell binding of QD conjugate
Settings: overnight 37 C, 5' AminoC6, QD-aptamer 10 nM (Methods; 20 nM in Figure 5b legend) with adherent cells, 12 h/overnight, 5% CO2, conjugates prepared in PBS pH 7.4/1% BSA

nucleolin (cell surface, on RD and Rh30 rhabdomyosarcoma cells), sequence (P19338 whole entry): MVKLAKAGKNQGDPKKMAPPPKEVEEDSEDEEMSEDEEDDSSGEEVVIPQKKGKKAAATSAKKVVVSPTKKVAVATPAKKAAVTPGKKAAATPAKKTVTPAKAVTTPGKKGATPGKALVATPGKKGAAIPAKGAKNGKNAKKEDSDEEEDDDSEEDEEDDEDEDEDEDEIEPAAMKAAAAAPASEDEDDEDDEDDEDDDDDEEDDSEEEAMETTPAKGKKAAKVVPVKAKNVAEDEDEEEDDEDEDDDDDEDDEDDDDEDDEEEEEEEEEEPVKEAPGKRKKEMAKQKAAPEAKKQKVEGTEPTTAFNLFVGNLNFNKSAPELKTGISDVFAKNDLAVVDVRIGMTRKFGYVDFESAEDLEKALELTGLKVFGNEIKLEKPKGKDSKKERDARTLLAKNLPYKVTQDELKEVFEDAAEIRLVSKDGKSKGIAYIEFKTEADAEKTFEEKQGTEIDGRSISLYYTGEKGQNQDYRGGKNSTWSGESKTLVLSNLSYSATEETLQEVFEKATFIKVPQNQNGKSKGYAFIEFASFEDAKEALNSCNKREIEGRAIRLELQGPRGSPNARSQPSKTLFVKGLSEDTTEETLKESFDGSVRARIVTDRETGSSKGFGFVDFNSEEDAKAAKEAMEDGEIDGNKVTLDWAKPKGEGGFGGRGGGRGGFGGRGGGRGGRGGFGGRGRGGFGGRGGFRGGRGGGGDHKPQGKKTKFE

## TTGGTGGTGGTGGTTGTGGTGGTGGTGG [AS1411 (AGRO100)]
RD cells
  binding signal (fold over QD-NC-AS1411): 8.8
Rh30 cells
  binding signal (fold over QD-NC-AS1411): 2.2
